Measured values reported in PMC3124540, “A Minimum of Three Motifs Is Essential for Optimal Binding of Pseudomurein Cell Wall-Binding Domain of Methanothermobacter thermautotrophicus” (PLoS ONE, 2011).

Target: the molecule itself
Test: SEC; Superdex 200 10/300 GL, room temperature, 50 mM NaH2PO4, 150 mM NaCl, pH 7.0; calibrated with globular proteins

B1: three pseudomurein binding motifs with C-terminal ten-Histidine tag (3P-His10), the PMB domain of MTH719 (domain or fragment, Methanothermobacter thermautotrophicus)
chain: MGGGFAASVKISVRQLTDAASWVRAYYGRYGRLPGKVTISGHGYSMAQFLYLLCRATVNINAGNVAPISVKSVASAPASGGWYRHGRLYRSSYVRVAKNILSFIDSRGRAPNYAITGLGRIPFQRLVYMYSKIIKFYGTNKRLPNYVTI
notes: short N-terminal peptide region resulting from the cloning procedure (LIC); also called PMB domain 3P-His10; 3P-His10 PMB domain; source: E. coli Rosetta gami 2 (pBADcLIC, arabinose induced), purified (Ni-NTA); not shown: His10, C-terminal, kept
B1: binds.
